From patent US11833164B2, “Methods of treating Fabry disease in patients having a mutation in the GLA gene” (Amicus Therapeutics, Inc., priority 2019, dated 2023) come the findings set out here.

Residue numbers refer to the chain shown, from its start. Names and notes keep the numbering of the source.

This assay deals with mutant form of α-Gal A expressed in HEK-293 cells. The assay can be described thus: HEK assay (GLP HEK / Migalastat Amenability Assay): α-Gal A activity in lysates of transiently transfected HEK-293 cells incubated with or without 10 μM migalastat. In kind it is cell-based, human. The settings on record: for Absolute increase (% WT) / Relative increase: 10 μM migalastat versus baseline; for Baseline α-Gal A activity (% WT): absence of migalastat; for Baseline α-Gal A activity (% WT) / 10 μM migalastat α-Gal A activity (% WT): percentage of baseline wild-type α-Gal A activity; for Baseline α-Gal A activity (% WT) / Baseline α-Gal A activity / 10 μM migalastat α-Gal A activity / 10 μM migalastat α-Gal A activity (% WT): mean ± SEM; for Baseline α-Gal A activity / 10 μM migalastat α-Gal A activity: lysates of HEK-293 cells transiently transfected with the mutant form; for Baseline α-Gal A activity: incubated 5 days in absence of migalastat; for 10 μM migalastat α-Gal A activity: incubated 5 days with 10 μM migalastat; for 10 μM migalastat α-Gal A activity (% WT): with 10 μM migalastat, 5 days. The procedure, abridged:
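Activity reported as 4-MU released (nmol/mg/hr), mean±SEM, from lysates of transiently transfected HEK-293 cells expressing mutant α-Gal A, cultured with or without 10 μM migalastat.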

B1: R356L (protein)
chain: MQLRNPELHLGCALALRFLALVSWDIPGARALDNGLARTPTMGWLHWERFMCNLDCQEEPDSCISEKLFMEMAELMVSEGWKDAGYEYLCIDDCWMAPQRDSEGRLQADPQRFPHGIRQLANYVHSKGLKLGIYADVGNKTCAGFPGSFGYYDIDAQTFADWGVDLLKFDGCYCDSLENLADGYKHMSLALNRTGRSIVYSCEWPLYMWPFQKPNYTEIRQYCNHWRNFADIDDSWKSIKSILDWTSFNQERIVDVAGPGGWNDPDMLVIGNFGLSWNQQVTQMALWAIMAAPLFMSNDLRHISPQAKALLQDKDVIAINQDPLGKQGYQLRQGDNFEVWERPLSGLAWAVAMINLQEIGGPRSYTIAVASLGKGVACNPACFITQLLPVKRKLGFYEWTSRLRSHINPTGTVLLQLENTMQMSLKDLL
With B1, the “Absolute increase (% WT)” value stood at 43.7 % WT, the Relative increase was found to be 2.8, the “Baseline α-Gal A activity (% WT)” value turned out to be 24.4 ± 1 % WT and the “Baseline α-Gal A activity” value was 10680 ± 518 nmol/mg/h. For the same molecule, the “10 μM migalastat α-Gal A activity” value came out at 29548 ± 2017 nmol/mg/h and the “10 μM migalastat α-Gal A activity (% WT)” value is given as 68.1 ± 4.6 % WT.

B2: Y365D (protein)
chain: B1 chain with L356R, Y365D
B2: the “Absolute increase (% WT)” value is 19.7 % WT, the Relative increase was determined as 1.6, the “Baseline α-Gal A activity (% WT)” value came to 31.3 ± 2.7 % WT and the “Baseline α-Gal A activity” value was 9119 ± 1027 nmol/mg/h. The “10 μM migalastat α-Gal A activity” value is 14664 ± 1311 nmol/mg/h and the “10 μM migalastat α-Gal A activity (% WT)” value is listed as 51 ± 3.5 % WT.

B3: R363L (protein)
chain: B1 chain with L356R, R363L
Consider B3, for which the “Absolute increase (% WT)” value is listed as 62.2 % WT, the Relative increase worked out at 3.5, the “Baseline α-Gal A activity (% WT)” value is listed as 23.2 ± 1.9 % WT and the “Baseline α-Gal A activity” value was found to be 8123 ± 869 nmol/mg/h. In addition, the “10 μM migalastat α-Gal A activity” value turned out to be 27997 ± 2485 nmol/mg/h and the “10 μM migalastat α-Gal A activity (% WT)” value is 85.4 ± 9.5 % WT.

B4: Y365F (protein)
chain: B1 chain with L356R, Y365F
Consider B4, for which the “Absolute increase (% WT)” value was 21.1 % WT, the Relative increase was 1.3, the “Baseline α-Gal A activity (% WT)” value was found to be 67.7 ± 5.1 % WT and the “Baseline α-Gal A activity” value amounted to 19631 ± 2010 nmol/mg/h. Further, the “10 μM migalastat α-Gal A activity” value was found to be 25395 ± 2160 nmol/mg/h and the “10 μM migalastat α-Gal A activity (% WT)” value is listed as 88.8 ± 5.3 % WT.

B5: P362S (protein)
chain: B1 chain with L356R, P362S
As to B5, the “Absolute increase (% WT)” value worked out at 53.8 % WT, the Relative increase was found to be 1.8, the “Baseline α-Gal A activity (% WT)” value was 71.2 ± 7.7 % WT and the “Baseline α-Gal A activity” value amounted to 25234 ± 2794 nmol/mg/h. In addition, the “10 μM migalastat α-Gal A activity” value worked out at 45209 ± 4138 nmol/mg/h and the “10 μM migalastat α-Gal A activity (% WT)” value came out at 125 ± 9 % WT.

B6: I359F (protein)
chain: B1 chain with L356R, I359F
With B6, the “Absolute increase (% WT)” value is 14.1 % WT, the Relative increase amounted to 2.1, the “Baseline α-Gal A activity (% WT)” value turned out to be 13 ± 1 % WT and the “Baseline α-Gal A activity” value turned out to be 6138 ± 568 nmol/mg/h. In addition, the “10 μM migalastat α-Gal A activity” value is 13144 ± 1091 nmol/mg/h and the “10 μM migalastat α-Gal A activity (% WT)” value stood at 27 ± 1.6 % WT.

B7: S364C (protein)
chain: B1 chain with L356R, S364C
Turning to B7, the “Absolute increase (% WT)” value is 40.0 % WT, the Relative increase was 1.3, the “Baseline α-Gal A activity (% WT)” value turned out to be 127 ± 10.6 % WT and the “Baseline α-Gal A activity” value stood at 41263 ± 2389 nmol/mg/h. Further, the “10 μM migalastat α-Gal A activity” value came to 53912 ± 3067 nmol/mg/h and the “10 μM migalastat α-Gal A activity (% WT)” value was determined as 167 ± 14.8 % WT.

B8: I359V (protein)
chain: B1 chain with L356R, I359V
As for B8, the “Absolute increase (% WT)” value is listed as 31.6 % WT, the Relative increase was 1.6, the “Baseline α-Gal A activity (% WT)” value was determined as 51.5 ± 3.4 % WT and the “Baseline α-Gal A activity” value is 20990 ± 1174 nmol/mg/h. Further, the “10 μM migalastat α-Gal A activity” value was 34265 ± 1528 nmol/mg/h and the “10 μM migalastat α-Gal A activity (% WT)” value is recorded as 83.1 ± 3.3 % WT.

B9: I359S (protein)
chain: B1 chain with L356R, I359S
B9: the “Absolute increase (% WT)” value is listed as 29.6 % WT, the Relative increase came out at 1.3, the “Baseline α-Gal A activity (% WT)” value is 101.6 ± 6.3 % WT and the “Baseline α-Gal A activity” value was 37737 ± 2594 nmol/mg/h. The “10 μM migalastat α-Gal A activity” value stood at 48055 ± 2727 nmol/mg/h and the “10 μM migalastat α-Gal A activity (% WT)” value came to 131.2 ± 8.4 % WT.

B10: Q357E (protein)
chain: B1 chain with L356R, Q357E
For the molecule B10, the “Absolute increase (% WT)” value was determined as 41.5 % WT, the Relative increase is recorded as 1.9, the “Baseline α-Gal A activity (% WT)” value came out at 42.8 ± 2.1 % WT and the “Baseline α-Gal A activity” value turned out to be 15264 ± 877 nmol/mg/h. Also, the “10 μM migalastat α-Gal A activity” value was 28922 ± 1194 nmol/mg/h and the “10 μM migalastat α-Gal A activity (% WT)” value stood at 84.3 ± 6.3 % WT.

B11: R363S (protein)
chain: B1 chain with L356R, R363S
In the case of B11, the “Absolute increase (% WT)” value is on record as 86.6 % WT, the Relative increase turned out to be 2.7, the “Baseline α-Gal A activity (% WT)” value turned out to be 50.1 ± 5.9 % WT and the “Baseline α-Gal A activity” value was determined as 16400 ± 1695 nmol/mg/h. In addition, the “10 μM migalastat α-Gal A activity” value turned out to be 44621 ± 3266 nmol/mg/h and the “10 μM migalastat α-Gal A activity (% WT)” value was determined as 136.7 ± 12.4 % WT.

B12: P362H (protein)
chain: B1 chain with L356R, P362H
On to B12, for which the “Absolute increase (% WT)” value is 33.4 % WT, the Relative increase came out at 3.9, the “Baseline α-Gal A activity (% WT)” value is on record as 11.2 ± 1 % WT and the “Baseline α-Gal A activity” value stood at 3713 ± 377 nmol/mg/h. Besides, the “10 μM migalastat α-Gal A activity” value worked out at 14620 ± 531 nmol/mg/h and the “10 μM migalastat α-Gal A activity (% WT)” value is 44.6 ± 1.9 % WT.

B13: P362R (protein)
chain: B1 chain with L356R, P362R
Take B13: the “Absolute increase (% WT)” value is 23.9 % WT, the Relative increase is 1.8, the “Baseline α-Gal A activity (% WT)” value stood at 25 ± 3.1 % WT and the “Baseline α-Gal A activity” value stood at 8745 ± 1176 nmol/mg/h. For the same molecule, the “10 μM migalastat α-Gal A activity” value is 15971 ± 1019 nmol/mg/h and the “10 μM migalastat α-Gal A activity (% WT)” value was 48.9 ± 4.1 % WT.

B14: P362A (protein)
chain: B1 chain with L356R, P362A
In the case of B14, the “Absolute increase (% WT)” value is 40.1 % WT, the Relative increase came out at 1.4, the “Baseline α-Gal A activity (% WT)” value stood at 100.8 ± 9.5 % WT and the “Baseline α-Gal A activity” value came to 35322 ± 3087 nmol/mg/h. Besides, the “10 μM migalastat α-Gal A activity” value stood at 49809 ± 2721 nmol/mg/h and the “10 μM migalastat α-Gal A activity (% WT)” value amounted to 140.9 ± 8.5 % WT.

B15: R363G (protein)
chain: B1 chain with L356R, R363G
In the case of B15, the “Absolute increase (% WT)” value amounted to 72.6 % WT, the Relative increase is given as 2.7, the “Baseline α-Gal A activity (% WT)” value is given as 41.8 ± 5.1 % WT and the “Baseline α-Gal A activity” value is 13990 ± 1613 nmol/mg/h. Also, the “10 μM migalastat α-Gal A activity” value worked out at 37837 ± 2998 nmol/mg/h and the “10 μM migalastat α-Gal A activity (% WT)” value came out at 114.4 ± 10.7 % WT.

B16: I359L (protein)
chain: B1 chain with L356R, I359L
Take B16: the “Absolute increase (% WT)” value was determined as 25.6 % WT, the Relative increase worked out at 1.7, the “Baseline α-Gal A activity (% WT)” value was 39.1 ± 1.8 % WT and the “Baseline α-Gal A activity” value was found to be 16254 ± 909 nmol/mg/h. For the same molecule, the “10 μM migalastat α-Gal A activity” value turned out to be 26791 ± 1713 nmol/mg/h and the “10 μM migalastat α-Gal A activity (% WT)” value is given as 64.7 ± 3.9 % WT.

B17: I359N (protein)
chain: B1 chain with L356R, I359N
As for B17, the “Absolute increase (% WT)” value is reported as 12.5 % WT, the Relative increase was 1.6, the “Baseline α-Gal A activity (% WT)” value was determined as 20.8 ± 1.2 % WT and the “Baseline α-Gal A activity” value worked out at 10862 ± 655 nmol/mg/h. Moreover, the “10 μM migalastat α-Gal A activity” value amounted to 17332 ± 879 nmol/mg/h and the “10 μM migalastat α-Gal A activity (% WT)” value amounted to 33.3 ± 1.8 % WT.

B18: S364P (protein)
chain: B1 chain with L356R, S364P
B18: the “Absolute increase (% WT)” value is 63.1 % WT, the Relative increase turned out to be 1.4, the “Baseline α-Gal A activity (% WT)” value is listed as 143.2 ± 13.7 % WT and the “Baseline α-Gal A activity” value was found to be 48193 ± 4573 nmol/mg/h. Further, the “10 μM migalastat α-Gal A activity” value worked out at 66731 ± 4698 nmol/mg/h and the “10 μM migalastat α-Gal A activity (% WT)” value was 206.4 ± 20 % WT.
